These results are taken from US20250163116A1, “NEW METHOD TO TREAT INFECTIOUS DISEASES” (INSERM (INSTITUT NATIONAL DE LA SANTÉ ET DE LA RECHERCHE …, priority 2022, published 2025).

Assay [1] deals with SCID mice grafted with human skin infected with Nm 2C4.3. Nature of the assay: Outcome of meningococcal infection in SCID mice grafted with human skin (survival, with or without antibiotics). In kind it is in vivo. On the procedure:
A-D, SCID mice grafted with human skin were infected intravenously with Nm 2C4.3 wild-type strain (5×10^6 bacteria); 2 h after bacterial challenge, mice received recombinant human ANGPTL4 (1 μg, intravenously), cefotaxime (200 mg kg-1, intraperitoneally) alone or in combination with ANGPTL4 or vehicle as a control. 18 h following bacterial challenge, ANGPTL4 (1 μg) and cefotaxime (200 mg kg-1) were re-administered. This experiment was performed twice with n=3 or 4 mice per group, using skin from two different donors. A, A schematic representation of the protocol used in vivo. B, Bacteraemia 4, 18, 48 and 72 h post-infection (mean±s.e.m.). C, Survival curve: * P=0.0275; two-sided log-rank Mantel-Cox survival analysis. D, Thrombosis within the skin grafts at 4 h post-infection was assessed by immunofluorescence analysis and quantified as described in FIG. 8 (error bars show mean±s.e.m.; 40 vessels per mouse were analysed; n=4 mice per group; *** P<0.001; two-tailed Student's t-test.
Six-week-old CB17/Icr-Prkdcscid female mice were obtained from Janvier Labs. Human skin tissues were obtained from adult patients undergoing plastic surgery in the Service de Chirurgie Plastique et Reconstructive of the Groupe Hospitalier Saint-Joseph. […] Experimental procedures were performed as previously described in accordance with the guidelines of the Institut National de la Santé et de la Recherche Médicale and conformed to the European ethical legislation (Directive 2010/63/EU). The experimental protocol was approved by the Animal Experimentation Ethics Committee of the Université Paris Descartes (consent forms CEEA34.O.J.L.039.12 and 2018012515596498). […] A skin flap was created and a full thickness human skin graft was placed onto the wound bed. The transplants were held in place with 6-0 non-absorbable monofilament suture materials, and the flap was then sutured above the transplant. Grafted mice were infected 4-6 weeks after human skin transplantation. N. meningitidis was grown overnight at 37° C. on GCB agar plates prepared without iron and supplemented with 15 μM deferoxamine (Desferal, Novartis). Bacterial colonies were harvested and cultured in RPMI media with 1% BSA medium and 0.06 μM deferoxamine with gentle agitation to reach the exponential phase of growth. Bacteria were then resuspended in physiological saline solution. Mice were infected intravenously with 200 μl (5×10^6 bacteria) of this bacterial suspension. A 10 mg dose of human holotransferrin (R&D Systems) was administered intraperitoneally just before infection. Mice were killed at 4 h after infection. Human skin grafts were carefully collected using a sterile cutter. The tissue was washed in PBS and fixed overnight at 4° C. in 4% paraformaldehyde in phosphate buffer. After washing in phosphate buffer, the specimens were embedded in OCT medium and then frozen at −80° C. Sections of the dermis (7 μm thick) were immobilized on Superfrost Plus microscope slides and subjected to immunofluorescence analysis. Sections were incubated with the primary antibodies for 1 h in PBS/3% BSA then DAPI was added to Alexa-conjugated secondary antibodies for 1 h. After additional washing, coverslips were mounted in glycergel (Dako) and were further analysed using a slide scanner (Lamina, Perkin Elmer). Analysis of the images was performed using ImageJ software (NIH). […]
We then analysed whether ANGPTL4 could provide a beneficial effect when administered with antibiotics.

The subject of assay [2] is HDMEC infected with N. meningitidis 2C4.3. Nature of the assay: Caspase-3/7 apoptosis detection in infected HDMECs (IncuCyte). In kind it is cell-based, human. The settings on record: Caspase-3/7 reagent, real time over 9 h, 1 μg/mL. On the procedure: FIG. 1. Exogenous ANGPTL4 exerts protective effects on dermal microvascular endothelial cells infected by N. meningitidis. A. HDMECs were infected with Nm 2C4.3 for 30 min and treated with 1 μg/mL of recombinant human ANGPTL4 for 2 h 30. Cells were fixed and stained for cellular actin, VE-cadherin and DAPI and analyzed by fluorescent microscopy. Quantifications of VE-cadherin enrichment at intercellular junctions and of intercellular spaces area were performed on 30 fields with Image J software. Kruskal-Wallis test ** P<0.001; P<0.0001. B. HDMEC were either uninfected or infected with N. meningitidis 2C4.3 for 30 min and treated with 1 μg mL−1 of recombinant human ANGPTL4, its N-terminal portion (nANGPTL4) or its C-terminal portion (cANGPTL4) for 2 h 30. Caspase-3/7 reagent was added to detect apoptosis in real time over 9 h using the IncuCyte® Live-Cell Analysis System

B1: ANGPTL4: Recombinant human ANGPTL4 (Angiopoietin-like 4), full length, SEQ ID NO: 1, purchased from R&D Systems (protein, listed as Homo sapiens)
chain: MSGAPTAGAALMLCAATAVLLSAQGGPVQSKSPRFASWDEMNVLAHGLLQLGQGLREHAERTRSQLSALERRLSACGSACQGTEGSTDLPLAPESRVDPEVLHSLQTQLKAQNSRIQQLFHKVAQQQRHLEKQHLRIQHLQSQFGLLDHKHLDHEVAKPARRKRLPEMAQPVDPAHNVSRLHRLPRDCQELFQVGERQSGLFEIQPQGSPPFLVNCKMTSDGGWTVIQRRHDGSVDFNRPWEAYKAGFGDPHGEFWLGLEKVHSITGDRNSRLAVQLRDWDGNAELLQFSVHLGGEDTAYSLQLTAPVAGQLGATTVPPSGLSVPFSTWDQDHDLRRDKNCAKSLSGGWWFGTCSHSNLNGQYFRSIPQQRQKLKKGIFWKTWRGRYYPLQATTMLIQPMAAEAAS
As to B1, in assay [1] (1 μg/mouse i.v., 2 h post-infection, all control mice died), the “mice surviving the infection” value is on record as 15%. In addition, the “signs of thrombosis and vascular leakage in human dermal vessels of grafts” value in assay [1] (at the time of death, data not shown) is “reduced signs of thrombosis and vascular leakage”. In assay [2], the “cell apoptosis induced by meningococcal infection” value is “inhibited cell apoptosis”.
